In one test the target is T1, HER2-Fc protein (Homo sapiens, UniProt P04626).
T1 construct: human epidermal growth factor receptor type 2 (HER2), fused to Fc; Probably the extracellular domain of HER2; The source may stand in Supplementary Methods
Briefly: SPR; Biacore 3000 System; binding to HER2-Fc protein; which partner was immobilised is not stated. The conditions noted are these: both partners purified. A general note: Surface plasmon resonance follows binding to a sensor surface in real time, without labels.

The next test concerns the target T2, murine HER2 (Mus musculus, UniProt P70424).
T2 construct: murine HER2
Briefly: ELISA; affinity, specificity and species cross-reactivity by ELISA; details in Supplementary Materials. On the technique in general: In an ELISA, binding on a coated surface is turned into a signal by an enzyme label.

In test [1] the target is T3, human epidermal growth factor receptor type 2 (HER2) on HER2-expressing carcinoma cells (Homo sapiens, endogenous on SKOV-3 cells, UniProt P04626).
T3 construct: human epidermal growth factor receptor type 2 (HER2), endogenous on SKOV-3 and BT474 cells; The assay tells which cell line was used; also called HER2 receptor; source: endogenous, on SKOV-3 human ovarian carcinoma cells and on BT474 human breast carcinoma cells
The test can be described thus: radioligand binding; cell-based affinity assay on HER2-expressing SKOV-3 cells; nonspecific binding measured with a 100-fold molar excess of trastuzumab; three therapy-level batches. The conditions noted are these: one partner purified.

Several values for one entry are separate records, joined by “and”; a condition that tells them apart may be missing. Equal values may be shown once.

T2 sequence (P70424 23-1256): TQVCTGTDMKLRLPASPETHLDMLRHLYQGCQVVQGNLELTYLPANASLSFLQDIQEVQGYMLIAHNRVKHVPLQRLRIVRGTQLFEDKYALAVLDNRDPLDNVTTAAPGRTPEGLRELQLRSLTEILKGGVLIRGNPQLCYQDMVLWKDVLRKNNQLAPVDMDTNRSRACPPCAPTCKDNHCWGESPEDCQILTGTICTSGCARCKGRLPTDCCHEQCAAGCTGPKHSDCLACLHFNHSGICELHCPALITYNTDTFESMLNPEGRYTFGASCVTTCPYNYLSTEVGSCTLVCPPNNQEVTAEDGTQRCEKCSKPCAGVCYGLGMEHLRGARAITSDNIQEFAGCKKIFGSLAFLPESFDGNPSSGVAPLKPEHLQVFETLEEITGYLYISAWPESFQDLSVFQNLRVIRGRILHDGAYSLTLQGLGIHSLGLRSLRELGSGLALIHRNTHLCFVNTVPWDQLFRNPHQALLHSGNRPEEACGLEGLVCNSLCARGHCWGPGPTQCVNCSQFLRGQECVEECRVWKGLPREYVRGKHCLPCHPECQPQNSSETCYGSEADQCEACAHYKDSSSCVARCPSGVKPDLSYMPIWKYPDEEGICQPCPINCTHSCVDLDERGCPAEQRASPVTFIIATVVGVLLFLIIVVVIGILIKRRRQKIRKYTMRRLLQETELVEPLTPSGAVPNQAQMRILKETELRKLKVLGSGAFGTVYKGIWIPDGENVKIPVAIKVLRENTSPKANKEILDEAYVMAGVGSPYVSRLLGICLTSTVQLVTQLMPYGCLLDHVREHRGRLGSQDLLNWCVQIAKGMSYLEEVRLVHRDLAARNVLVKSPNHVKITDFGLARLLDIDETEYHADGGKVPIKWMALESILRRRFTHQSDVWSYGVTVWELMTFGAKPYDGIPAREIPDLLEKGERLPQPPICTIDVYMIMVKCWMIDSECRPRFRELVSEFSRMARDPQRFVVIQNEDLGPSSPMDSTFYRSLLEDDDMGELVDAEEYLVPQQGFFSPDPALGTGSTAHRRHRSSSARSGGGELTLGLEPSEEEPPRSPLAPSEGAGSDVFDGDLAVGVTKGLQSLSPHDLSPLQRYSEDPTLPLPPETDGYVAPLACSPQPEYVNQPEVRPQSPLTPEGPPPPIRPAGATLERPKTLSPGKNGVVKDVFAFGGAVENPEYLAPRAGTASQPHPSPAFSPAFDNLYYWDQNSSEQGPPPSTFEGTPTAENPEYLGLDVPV

B1: VHH_1028 (VHH)
VHH: EVQLVESGGGLVQAGGSLRLSCAASGITFSINTMGWYRQAPGKQRELVALISSIGDTYYADSVRGRFTISRDNAKNTVYLQMNSLKPEDTAVYYCKRFRTAAQGTDYWGQGTQVTVSS
notes: Measured mass 12,844.0 Da (theoretical 12,844.2 Da); Engineered to have no lysine in its CDR regions; also called anti-HER2 VHH_1028; sdAb VHH_1028; source: developed and provided by Cereius, Inc; production and purification in Supplementary Materials
For orientation: Kd means the free concentration of one partner at which half of the binding sites on the other are occupied at equilibrium, for simple one-to-one binding. B1 came in with a Kd with HER2-Fc protein of 0.21 nM. Moreover, the binding result with murine HER2 is “no binding”.

B2: iso-[^131I]SGMIB-VHH_1028 (VHH)
VHH: B1 VHH
notes: as the chain of m1; source: VHH_1028 conjugated with iso-[^131I]SGMIB, isolated by gel filtration (PD-10)
On to B2, for which the dissociation constant Kd in test [1] is 1.5 nM and 2.9 nM and 2.6 nM.

B3: iso-SGMIB-VHH_1028 (VHH)
VHH: B1 VHH
notes: as the chain of m1; Measured mass 13,147.6 Da (calculated 13,146.4 Da); also called unlabeled iso-SGMIB-VHH_1028; 1:1 iso-SGMIB-VHH_1028 conjugate; source: VHH_1028 reacted with iso-SGMIB, 1:1 conjugate isolated by HIC-HPLC
As for B3, the dissociation constant Kd with HER2-Fc protein is 0.21 nM. This lies in the sub-nanomolar range.

The values above are taken from paper PMC8864007, “Evaluation of an ^131I-labeled HER2-specific single domain antibody fragment for the radiopharmaceutical therapy of HER2-expressing cancers” (Scientific Reports, 2022).
